Experimental data published in the RNAGym collection of RNA variant scans (doi:10.7554/elife.80360).

B1: HDV Ribozyme (parent)
chain: GGCCGGCAUGGUCCCAGCCUCCUCGCUGGCGCCGGCUGGGCAACAUUCCGAGGGGACCGUCCCCUCGGUAAUGGCGAAUGGGACCCA

Variants of: B1
Experiment: self-cleavage, relative activity (ratio to wild type); higher = more cleavage; co-transcriptional

Row | Variant | self-cleavage
1 | C26U C66G | 0.861
2 | G2A C4A | 0.0615
3 | G31U G50U | 0.415
4 | C18A U27C | 0.135
5 | C33G G68U | 0.173
6 | G52A G67U | 0.843
7 | C3U C7U | 0.529
8 | A43C G54U | 0.374
9 | C4G C44U | 0.141
10 | C57G G81C | 0.177
11 | U20G U65A | 0.138
12 | G5U G11A | 0.18
13 | G31A G53A | 0.487
14 | C36A A56U | 0.229
15 | C13A C61A | 0.163
16 | G40C C58U | 0.354
17 | C49A C64G | 0.356
18 | C85G C86A | 0.763
19 | G10U U27C | 0.554
20 | C48U G54U | 1.02
21 | G25A G50U | 0.242
22 | C24A U79A | 0.227
23 | G39C G52C | 0.309
24 | G17A G81A | 0.151

Row | Variant | self-cleavage
25 | C33A C44A | 0
26 | U69A C75U | 0.155
27 | C4G G10U | 0.0779
28 | G2A U37C | 0.232
29 | C22G C44A | 0.0426
30 | C64U G73A | 0.81
31 | C3A C62A | 0.511
32 | G35A C49G | 0.425
33 | U65C A77U | 0.806
34 | G25C C57G | 0.119
35 | G25U G76C | 0.224
36 | U23C A45U | 0.675
37 | G11U C58G | 0.44
38 | A16C A87G | 0.769
39 | G1C U72C | 0.111
40 | C22A G39C | 0.0437
41 | G28A A51U | 0.138
42 | G31U G38C | 0.148
43 | G31U G38A | 0.109
44 | G53A C75U | 0.256
45 | C33A G34U | 0.0712
46 | C22G G68C | 0.0354
47 | G17U U47A | 0.256
48 | C19U U27A | 0.332

Row | Variant | self-cleavage
49 | G28C G59C | 0.212
50 | C21A C36A | 0.117
51 | C66G C84U | 0.545
52 | G2A G17U | 0.0432
53 | G2U A77C | 0.0674
54 | A77G G80C | 0.0437
55 | C14G U65C | 0.8
56 | G28U C64U | 0.0733
57 | C30G G82C | 0.0326
58 | C22A C36A | 0.0536
59 | C19G U60C | 0.0627
60 | C18G U72A | 0
61 | A16U G39U | 0.403
62 | U20G G73A | 0.113
63 | C3G C26A | 0.669
64 | A71G G82A | 0.538
65 | U27C C57A | 0.692
66 | G10C U72A | 0.415
67 | C41U U47G | 0.95
68 | A16G G35A | 0.696
69 | G74A A87G | 0.339
70 | G67A G81A | 0.302
71 | G1A C15U | 0.0665
72 | G10C G34U | 0.175

Row | Variant | self-cleavage
73 | G67C U69C | 1
74 | C36A A45U | 0.0475
75 | C15G G40U | 0.354
76 | C26G G76U | 0.916
77 | G34A G81C | 0.0733
78 | C15U C26A | 1.05
79 | C4U G50U | 0.656
80 | C22G A56G | 0.0875
81 | A42C G73C | 0.119
82 | G39A G53U | 0.504
83 | G50A G82C | 0.409
84 | C4A G34U | 0.831
85 | C33A A87G | 0.14
86 | G17U A70G | 0.674
87 | C14G C66U | 0.831
88 | U27G A51G | 1.03
89 | G6U G74A | 0.16
90 | G11C C48A | 0.277
91 | U72G A78C | 0.0831
92 | C13U C30A | 0.102
93 | C15G C41G | 0.289
94 | A42U C63A | 0.325
95 | U9C G54C | 1.11
96 | G17A G35C | 0.156

Row | Variant | self-cleavage
97 | U65G G67C | 0.156
98 | G35U G39A | 0.0906
99 | G34C A43G | 0
100 | C3A U23A | 0.475
101 | G55U G81C | 0.106
102 | C4A C32A | 0.0332
103 | U27G C64A | 0.705
104 | C30A A78U | 0.237
105 | C36U G38A | 0.191
106 | G6U U20C | 0.133
107 | A8U C62A | 0.956
108 | C18G C44G | 0.0723
109 | G35C C61A | 0.283
110 | C32A G67U | 0.232
111 | G35C C62U | 0.0665
112 | C62A C63G | 0.7
113 | A16G C22G | 0.185
114 | C33G C44U | 0.172
115 | C49G U72C | 0.332
116 | A78G C85U | 0.748
117 | G34C G39A | 0.0536
118 | U60G A70U | 0.969
119 | G34C | 0.195
120 | G29C C36A | 0.0297

Row | Variant | self-cleavage
121 | A71G G73U | 0.291
122 | C14A G54U | 0.628
123 | G55A G67A | 0.997
124 | G6A A83G | 0.302
125 | C21A G28A | 0.0268
126 | G28U A51G | 0.117
127 | G10A C61U | 0.84
128 | C63U A78C | 0.237
129 | G35A C75G | 0.218
130 | A77U G82C | 0.208
131 | C61A G68C | 0.873
132 | C48U A87G | 1.07
133 | C7U U12G | 1.02
134 | A8G U46A | 0.723
135 | G1C A42G | 0
136 | A42U G50A | 0.383
137 | U12A A16C | 0.499
138 | A16C U79C | 0.8
139 | G31A C86A | 0.669
140 | C22U U72G | 0.17
141 | A43U C64U | 0.588
142 | C15A C44U | 0.426
143 | C30G A77U | 0.0665
144 | U9A G40C | 0.325

Row | Variant | self-cleavage
145 | C61G G81C | 0.262
146 | C15G G39U | 0.128
147 | C4A A8G | 0.192
148 | G2U C32G | 0
149 | G5A C48G | 0.101
150 | G54C U79C | 0.482
151 | A56U C62G | 0.601
152 | G31U C49G | 0.231
153 | G50U U65G | 0.945
154 | U12C C49G | 0.199
155 | C63G A78G | 0.54
156 | G74C G82C | 0.0475
157 | U23G A45G | 0.962
158 | C24U A70U | 0.598
159 | C49G G68C | 0.458
160 | G25U G80C | 0.0733
161 | C61G G76A | 0.906
162 | C33U G76C | 1.07
163 | U60C A71C | 1.27
164 | U37C G82A | 0.173
165 | C33A U60C | 0.415
166 | G38C A71U | 0.0449
167 | A56C C85G | 1.04
